Results taken from the nanobody polyreactivity screen of Harvey et al. (2022).

assay: yeast display, Sf9 membrane polyspecificity reagent, FACS + sequencing; frameworks hold sequencing errors
Method in brief: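 Nanobodies came from a synthetic yeast display library in Saccharomyces cerevisiae BJ5465, induced with galactose for 36–48 hours and stained for 1 hour at 4 °C with 10% biotinylated, detergent-solubilized Sf9 membrane reagent. Cells were enriched on streptavidin microbeads and then FACS-sorted, with low and high (top ~1%) gates set on anti-HA fluorescence for expression and streptavidin fluorescence for reagent binding. Each polyreactivity label reflects the gate a clone came from. Genes were amplified by colony PCR, sequenced by MiSeq 2 × 250 and filtered by CDR length.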

| Sequence | polyreactivity (PSR sort gate) |
| --- | --- |
| QVQLVESGGGLVQAGGSLRLSCAASGSTIQSNMGWYRQAPGKERELVAAITTNGSSTYYADSVKGRFTISRDNAKNTVYLQMNCLKPEDTAVYDCAAGPRYRYYYGWYDYWGQGTQVNVSS | high polyreactivity |
| QVQLVESGGGLVQAGGSLRLSCAASGRIFDDNAMGWDRQAPGKETELVAAISASGGSTYYADSVKGRFTISRVNAKNTVYLQMNSLKPEDTAVYYCAKAPGQDTPYPYGYWGQGTQVTVSS | high polyreactivity |
| QVQLVESGGGLVQAGGSLRLSCADSGRTFFYYAMGWYRQAPGKERELVAAITTGGSTNYADSVKGRFTISRDNAKNTDYLQMKSLNPEDTEVYFCNADYDKGVRFNFTASFGEFDYWGQGTQVTVSS | low polyreactivity |
| QVQLVESGGGIVQAGGSLRLSCAASGSILDPNAMGTYRQAPGKEREFVASISASGGSTYYADSVKGRFSISRDIAKNTVYLQLNSLKPEDTAVYYCATLQGDSSSQYDYWGQGTQVTVSS | high polyreactivity |
| QVQLVESGGGLVQAGGSLRLSCAASGRTFDYYSMGWYRQAPGKERELVAAIRGSGGSTYYADSVKGRFTISRDNAKNTVSLQMNSLKPEDTAVYYCATDPPYFRTPWEYDYWGQGTQVTVSS | low polyreactivity |
| QVQLVESGGGLVQAGGSLRLSCAASGSIFSRYTMGWSRQAPGKERELVASISRRGGRTYYADSVKGRFTISRDNAKNTVYLQMNSLKPEDTAVYYCNTRTPAEYTPYGYDYWGQGTQVTVSS | high polyreactivity |
| QVQLVESGGGLVQAGGSLRLSCAASGNTFGIYAMGWYRQAPGKERELVAAISSGTSTNYADSVKGRFTISRDNAKNTVYLQMNSLKPEDTAVYYCNADDQYQDVREDFWGQGTQVTVSS | low polyreactivity |
| QVQLVESGGGLVQAGGSLRLSCAASGSTFGRYAMGWYRQAPGKERELVAGITSSGRTNYADSVKGRFTISRDNAKNTVYLQMNSLKPEDTAVYYCAKRWLRYGYRYDYWGQGTQVTVSS | high polyreactivity |
| QVHLVESGGGLVKAGGSLRLSCAASGLIFTQYSMGWYRQAPGTERELVAGITSSGGSTNYADSVKGRFTISRDNAKNTVYLQMNSLKPEDTAVYYCATRLGVLYDYWGQGTQVTVSS | low polyreactivity |
| QVQLVESGGGLVQAGGSLRLSCAASGLTFGHYAMGWYRQAPGKERELVATISSRGVSTRYADSVKGRFTISRDTAKNTVYLQMNSLKPEDTAVYYWHARDYTWGKYYSSKIGYYYWGQGTQVTVSS | high polyreactivity |
| QVQLVESGGGLVQAGGSLRLSCAASGSIFAHYTMGSYRQAPGKEREFVAAITKSGGRTYYADSVKGRFTISRDNAKNTVYLQMNSLKPEDTAVYYCARRRTIPYTLVDYDSWGQGTQVTVSS | low polyreactivity |
| QVQLVESGGGLVQAGGSLRLSCAASGSRYSRNAMGWYRQAPGKERELVAASSYSSGSTYYADSVKGRFTISLDNAKNTVYLQMNSLIPEDTAVYYCAADTTKLQGVEGDYWGQGTQVTVSS | low polyreactivity |
| QVLLVESGGGLVQAGGSLRLSCAASGFTFQLYAMGWYRQAPGKEREIVSAIRRNGGSTYYADSVKGRFTISRDNAKNTVYLQMNSLKPDDTAVYYCAADWYSYLHGTKYGYWGQGTQVTVSS | high polyreactivity |
| QVQLEDSGGGLVQAGGSLPLSCAASGRTFGLNVMGWSRQATGTERELLASIRNIGGSTYYADSVKGRFTISCDNAKNTVYLQMNSLKPEDTAVFYCAAVTRSWVHYRYYYWGQGTQVTVSS | high polyreactivity |
| QVQLVESGGGLVQAGGSLRLSCAASGFIFVRYAMGWYRPAPGKERELVAVITSGGSTYYADSVKGRFTISRDNAKNTVYLQMNSLKPEDTAVYYCAAQSKRYVRSYSWYDYWGQGTQVTVSS | high polyreactivity |
| QVQLVESGGGLVQAGGSLRLSCAASGSIFSPNVMGWYRQAPGKERELVAAINGSGSRTYYADSVKGRFTISRDNAKNTVYLQMNSLKPEDTAVYYCAAGSLGRYYFKLDYWGQGTQVTVSS | high polyreactivity |
| QVQLVESGGGLVQAGGSLRLSCAASGSIFAVNPMGWYRQAPGKERELVASITSGGSTNYADSVKGRFTISRDNAKIRVYLQMNRLKPEDTAVYYCNADSVRAVSRYDYWGQGTQVTVSS | low polyreactivity |
| QFQLVESGGGLVQAGGSLRLSCAASGNTFTKYAMGWYRQAPGKDRELLAGITRGGSTNYADSVKGRFTISRDNAKNTVYFQMNSLKPEDTAVYYCNARPVYGSRFYSAVRMEYWGQGTQVTVSS | low polyreactivity |
| QVQLVESVGGLVQAGGSLRLSCAASGRTFSKYAMGWYRQEPGQERELVAAITSRGSSTYYADSVKGRFTISRDNANNTVYLQMNSLKPEETAVYYCNAGGYSKRTGRYRSGSDYWGQGTHVTVSS | high polyreactivity |
| QVQLVESGGCLVQAGGSLRLICAASGRIVKYAMGWYRQAPGKERELVAAISGSGGTTYYADSVKGRFTISRDNAKNTVYLQMNSLKPEDTAVYYCAASRPRPPSSRRMDYWGQGTQVTVSS | high polyreactivity |
| QVQLVESGGGLVQAGGSLRLSCAASGFTFITNAMGWYRQAPGKERELVASISIGGSTNYADSVKGRFTISRDNAKNTVYLQMNSLKPEDTAVYYCAARVYRRLFLPGRYGRPLGYWGQGTQVTVTS | high polyreactivity |

| Sequence | polyreactivity (PSR sort gate) |
| --- | --- |
| QVQLVESGGGLVQAGGSLRLSCAASGYTFYVYAMGWYRQAPGKERELVAAIRSGGTTYYADSVKGRFTISRDNAKNTVYLQMNSLKPEDTAVYYCAAVSSDYPFEGNYWGQGTQVTVSS | low polyreactivity |
| QVQLGESGGGLVQAGGSLLLSSAASGFIFHNYPMGWYRQAPVKERELVAAISWSGSRTYYADSVKGRFTISRDNAKNSVYLQMNSLKPEDTAVYYCNKAPSWWDVRVPFDYWGQGTQVTVSS | low polyreactivity |
| QVQLVESGGGLVQAGGSLRLSCAASGSISFYYGIGWYRHAPGKERELVAALNNTGSTNYADSVKGRFTISRDNAKNTVYLQMNSLKPEDTAVYYCNAEQWQSSEYGEWSKRDYWGHGTQVTVSS | low polyreactivity |
| QVQLVESGGGLVQAGGSLRLSCADSGSISYSYAMGWYRQAPGKDRELVAAISWRGVSTYYADSVKGRFTISRDNAKNTVYLQMNSLKPEDTAVYYCNAVHHYPEHIGGGYWGQGTLVTVSS | low polyreactivity |
| QVQLVESGGGLVQAGGSLRLSCAASGFTFFNYAMGWYRQAPGKERELVAAISRSGGGTYYADSVKGRFTISRDNAKNTDYLQMNSLKPEDTAVYYCNKRGTHGYTYRKFDYWGQGTQVTVSS | high polyreactivity |
| QVQLVESGGGLVQAGGSLRLSCAASGLTFRYYSMGWYSQAPGKERELVASISWSGASTYYADSVKGRFTISRDNAKNTVYLQMNSLKPEDTGVYYCNAGYYGSYDYWGQGTQVTVSS | high polyreactivity |
| QVQLVETGGGLVQAGGSHRLSCAASGLTFYTYAMGWYRQAPGKERELVAAISTNGGSKYYADSVKGRFTISRDNAKNTVYLQRNCLKPEDTAVYYCAIEGGTYRIFNYWGQGTQVTVSS | low polyreactivity |
| QVQLQVSGGDLVQAGGSLRLSCEASGTIYGLTSMGWYRQAPGKEREFVAAITDGGNTNYADSVKGRFTISRDNAKNTVYLQMISLKPEDTGVYYCAVLFSDDAYYAYWGQGTQVTVSS | low polyreactivity |
| QDQLVESGGGLVQAGGSLRLSCAASGRIFNANTMGWYRQAPGKERELVARITWSGGGTYYADSVKGRFTISRDNAKNTVYLQMNCLKPEDTAVYYCAARLLIRYYYWGHGTQVTVSS | high polyreactivity |
| QVQLVESGGGLVQAGGSLRLSCAASGSTFSLYAMGWYRQAPGKERELVAAISSGGRTYYADSVKGRFTISRDNAKNTVYLQMNSLKPEVTAVYYCAVYVAYLYSYYYWGQGTQVTVSS | low polyreactivity |
| QVQLVESVGGLVQAGGSLRLSCAASGLTFGSYAMGWYRQAPGTDRELVAGINQSGGSTYYADSVKGRFTISRDNAKNTVSFQMNSLNPEDTAVYYCNAEAWVSQDWWQWVAYVYWGQGTQVTVSS | high polyreactivity |
| QVQLVESGGGLVQAGGSLRLSCAASGFTFYTNTMGWYRQAPGKERELVAAISSGGSTYYADSVKGRFTISRDNAKNTVYLQMNRLKPEDTAVYYCNAYDYHDVADDYWGQGTQVTVSS | low polyreactivity |
| QVQLVESGGGLVQAGGSLRISCAASGRTFPVNAMGWYRQAPGKERELVAAITWSGDSTYYADSVKGRFTISCDNAKNTVYLQMNSLKPEDTAVYYCAAAYRYGTLYYYWGQGTQVTVSS | low polyreactivity |
| QVQLVESGGGLVQAGGSLRLSCAASGRIFVKYGMGWYRQAPGKERELVAAISWTGGSTYYADSVKGRFTISRDNAKNTVYLQMNSLKPEDTAVYYCAAESWFKYDYWGQGTQVTVSS | low polyreactivity |
| QVQLVESGGGLVQAGGSLRLSCAASGRIFRRYVMGWYRQAPGKERELVARIRIRDSNTYYADSVKGRFTISRDNAKNTVYLQMNSLKPEDTAVYYCAVVANYVYSKYDYWGQGTQVTVSS | low polyreactivity |
| QVQLVESGGGLVQAGGSLRLSCAASGSTFWKYVKGWYRQAPGKERELVAAISNSGVNTYYADSVKGRFTISRDNAKNTVYLQMNSLKTEDTAVYYCAADRCGYEYWGQGTQVTVSS | high polyreactivity |
| QVQLVESGGGLVQAGGSLRLTCAASGSTLYVYPMGWYRPAPGKERELVASINSGGSTNYADSVKGRFSISRDNAKNTVYLQMNSLKRVDTAVYYCNAEYYGWFHHYDYWGQGTQVTVSS | high polyreactivity |
| QVQLEESGGGLVQAAGSLRLSSAASGSTFRYYAMGWYRQAPGKDRELVAAITRSRGSTYYADSVKGRFTISRDKAKNHVYLQMNSVKQEDTEVYYCAARGQTGYYSGVGYWGQGTQVTVSS | high polyreactivity |
| QVQLVESGGGLVQAGGSLRLSCAASGRIFFDYAMGSYRQAPGKEWVLVAAINRGGRTYYADSVKGRFTMSRDNAKNTVYLPMNTLKPEDTAVYYCPADGQTAKSNFAYWGQRTQVTVSS | low polyreactivity |
| QVQLVESGGGLVQAGGSLRLSCAASGSTYEYNAMGWYRQAPGKERELVAGISSGGSTYYADSVKGRFTISRDNAKNTVYLQMNSLKPEDTAVYYCATSEASVATWDRYTELDYWGQGSQVTVSS | low polyreactivity |
